The supplement of paper PMC6757056
± gives the standard deviation of the averaged measurements.

B1: library; a variant is named by its letters at N, in order (parent)
chain: GCUGUCACCGGUGCUUGGUACGUUAUAUUCAGCCGGUCUGAUGAGUCUNNNNNNAGACGAAACAGC

How the values were obtained:
(6R,S)-folinic acid [1] = variants of: B1; test: normalized RNA/DNA level without ligand (relative to sTRSVctl = 100) (log10 (% of sTRSVctl)); HEK293T overexpressing SLC46A1; higher = less ribozyme self-cleavage, higher mRNA level; conditions: without (6R,S)-folinic acid; ligand present: no
In short: (§1)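 HEK293T cells were transfected with library plasmids carrying ribozyme switches linked to an mCherry reporter, or an eGFP reporter in some ligand experiments, at 4 µg per well of a 6-well plate, with any ligand added 1 h beforehand. After 72 h, total RNA was extracted with EDTA, reverse-transcribed, amplified, barcoded and sequenced. RNA level was defined as RNA reads over DNA reads, normalized to a spiked-in non-cleaving sequence or to the top-ranked sequences. That value was multiplied by 100 and converted to log10, the top set was 25 sequences, and only sequences with ≥100 DNA reads were retained.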

(6R,S)-folinic acid [2] = variants of: B1; test: normalized RNA/DNA level with ligand (relative to sTRSVctl = 100) (log10 (% of sTRSVctl)); HEK293T overexpressing SLC46A1; ligand concentration (+) RNA-Seq: 6 mM; higher = less ribozyme self-cleavage, higher mRNA level; conditions: with (6R,S)-folinic acid; ligand present: yes
In short: as §1

Variant | normalized RNA/DNA level without ligand (log10) ((6R,S)-folinic acid [1]) | normalized RNA/DNA level with ligand (log10) ((6R,S)-folinic acid [2])
GCUGUCACCGGUGCUUGGUACGUUAUAUUCAGCCGGUCUGAUGAGUCUCCUAAAAGACGAAACAGC [CCUAAA] | 1.9908 ± 0.0014 | 2.01 ± 0.028
GCUGUCACCGGUGCUUGGUACGUUAUAUUCAGCCGGUCUGAUGAGUCUGCGUUAAGACGAAACAGC [GCGUUA] | 2.003 ± 0.0039 | 2.02 ± 0.036
GCUGUCACCGGUGCUUGGUACGUUAUAUUCAGCCGGUCUGAUGAGUCUGCGUUGAGACGAAACAGC [GCGUUG] | 2.009 ± 0.0022 | 2.05 ± 0.041
GCUGUCACCGGUGCUUGGUACGUUAUAUUCAGCCGGUCUGAUGAGUCUGCGUUUAGACGAAACAGC [GCGUUU] | 2.037 ± 0.017 | 2.04 ± 0.022
GCUGUCACCGGUGCUUGGUACGUUAUAUUCAGCCGGUCUGAUGAGUCUGCGUUCAGACGAAACAGC [GCGUUC] | 2.017 ± 0.0029 | 2.034 ± 0.02
GCUGUCACCGGUGCUUGGUACGUUAUAUUCAGCCGGUCUGAUGAGUCUACUAAUAGACGAAACAGC [ACUAAU] | 1.985 ± 0.007 | 2.01 ± 0.03
GCUGUCACCGGUGCUUGGUACGUUAUAUUCAGCCGGUCUGAUGAGUCUGCUACCAGACGAAACAGC [GCUACC] | 2.06 ± 0.023 | 2.05 ± 0.033
GCUGUCACCGGUGCUUGGUACGUUAUAUUCAGCCGGUCUGAUGAGUCUCCGUUUAGACGAAACAGC [CCGUUU] | 2.037 ± 0.0047 | 2.013 ± 0.02
GCUGUCACCGGUGCUUGGUACGUUAUAUUCAGCCGGUCUGAUGAGUCUCCGUUAAGACGAAACAGC [CCGUUA] | 2.005 ± 0.0026 | 1.97 ± 0.055
GCUGUCACCGGUGCUUGGUACGUUAUAUUCAGCCGGUCUGAUGAGUCUCCGUUCAGACGAAACAGC [CCGUUC] | 2.048 ± 0.0038 | 2.03 ± 0.071
GCUGUCACCGGUGCUUGGUACGUUAUAUUCAGCCGGUCUGAUGAGUCUCCGUUGAGACGAAACAGC [CCGUUG] | 1.99 ± 0.024 | 2.04 ± 0.044
GCUGUCACCGGUGCUUGGUACGUUAUAUUCAGCCGGUCUGAUGAGUCUUCUACAAGACGAAACAGC [UCUACA] | 2.057 ± 0.0079 | 2.0488 ± 0.002
GCUGUCACCGGUGCUUGGUACGUUAUAUUCAGCCGGUCUGAUGAGUCUGCGUGUAGACGAAACAGC [GCGUGU] | 1.974 ± 0.0053 | 2.04 ± 0.053
GCUGUCACCGGUGCUUGGUACGUUAUAUUCAGCCGGUCUGAUGAGUCUGCGUGAAGACGAAACAGC [GCGUGA] | 1.999 ± 0.015 | 2.03 ± 0.038
GCUGUCACCGGUGCUUGGUACGUUAUAUUCAGCCGGUCUGAUGAGUCUGCGUGCAGACGAAACAGC [GCGUGC] | 2.043 ± 0.019 | 2.03 ± 0.038
GCUGUCACCGGUGCUUGGUACGUUAUAUUCAGCCGGUCUGAUGAGUCUACGUGGAGACGAAACAGC [ACGUGG] | 1.954 ± 0.0043 | 2.05 ± 0.025
GCUGUCACCGGUGCUUGGUACGUUAUAUUCAGCCGGUCUGAUGAGUCUACGUGCAGACGAAACAGC [ACGUGC] | 2.026 ± 0.0053 | 2.02 ± 0.055
GCUGUCACCGGUGCUUGGUACGUUAUAUUCAGCCGGUCUGAUGAGUCUACGUGUAGACGAAACAGC [ACGUGU] | 2.06 ± 0.028 | 2.06 ± 0.024
GCUGUCACCGGUGCUUGGUACGUUAUAUUCAGCCGGUCUGAUGAGUCUGCUAAGAGACGAAACAGC [GCUAAG] | 1.968 ± 0.003 | 2.024 ± 0.016
GCUGUCACCGGUGCUUGGUACGUUAUAUUCAGCCGGUCUGAUGAGUCUGCUAACAGACGAAACAGC [GCUAAC] | 1.975 ± 0.015 | 2.015 ± 0.007
GCUGUCACCGGUGCUUGGUACGUUAUAUUCAGCCGGUCUGAUGAGUCUGCUAAAAGACGAAACAGC [GCUAAA] | 1.992 ± 0.009 | 2.02 ± 0.028
